Results reported in patent publication EP1780277A1.

Biological target: intact IFNAR1 from human cells (human) (UniProt P17181)
Assay: cell-based or functional assay

Sequence of UniProt P17181 (P17181 28-557): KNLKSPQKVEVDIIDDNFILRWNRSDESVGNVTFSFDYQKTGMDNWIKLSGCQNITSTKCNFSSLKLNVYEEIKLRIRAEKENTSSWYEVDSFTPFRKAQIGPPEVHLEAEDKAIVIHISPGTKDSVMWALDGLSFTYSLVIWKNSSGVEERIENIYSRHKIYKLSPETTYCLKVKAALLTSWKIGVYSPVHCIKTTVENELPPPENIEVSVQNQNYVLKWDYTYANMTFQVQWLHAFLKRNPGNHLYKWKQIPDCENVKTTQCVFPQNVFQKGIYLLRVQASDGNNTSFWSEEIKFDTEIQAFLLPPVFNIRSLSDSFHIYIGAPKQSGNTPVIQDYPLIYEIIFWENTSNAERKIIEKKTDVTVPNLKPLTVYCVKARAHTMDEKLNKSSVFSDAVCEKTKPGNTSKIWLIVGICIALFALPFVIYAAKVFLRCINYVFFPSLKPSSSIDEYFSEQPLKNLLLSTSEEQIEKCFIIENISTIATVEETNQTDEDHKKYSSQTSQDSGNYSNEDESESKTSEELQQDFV

growth inhibitory effect of IFN-β on myeloma cells (Alamar Blue), with antisense-1 oligonucleotide against IR1B4: < 5 fold
Substance: IR1B4/PRMT protein of human U266S cells (from UniProt Q99873 11-371)
